# Experimental data taken from patent US20240034813A1 (Janssen / Centocor, published 2024).
# B1: amivantamab (bispecific antibody, human IgG1, kappa)
# heavy 1: not shown
# light 1: not shown
# heavy 2: not shown
# light 2: DIQMTQSPSSVSASVGDRVTITCRASQGISNWLAWFQHKPGKAPKLLIYAASSLLSGVPSRFSGSGSGTDFTLTISSLQPEDFATYYCQQANSFPITFGQGTRLEIKRTVAAPSVFIFPPSDEQLKSGTASVVCLLNNFYPREAKVQWKVDNALQSGNSQESVTEQDSKDSTYSLSSTLTLSKADYEKHKVYACEVTHQGLSSPVTKSFNRGEC
# notes: The samples tested were high concentration (160 mg/mL) formulations, fresh or stored or stressed; also called JNJ-61186372; bispecific EGFR-cMet antibody
# Assays:
# [1] = target: T1, recombinant cMet/HGFR with c-terminal His-tag, Cy5-labeled (UniProt P08581 25-932, limits assumed, Cy5 label (reacted with Cy5 Mono NHS Ester; sites not stated)); test: competitive TR-FRET (Eu-amivantamab/Cy5-c-MET), EC50 ratio vs Reference Material; Ex. 2 Formulation 3 (acetate), 3 months at 5 C
# T1 construct: Commercial protein; also called Cy5-c-MET; Cy5-labeled c-MET antigen; not shown: C-terminal His-tag
# Text: (§1) In this procedure, varying concentrations of unlabeled bispecific EGFR-cMet antibody sample compete with donor fluorophore (Europium (Eu) chelate) labeled bispecific EGFR-cMet antibody for binding to an acceptor fluorophore (Cy5)-labeled c-MET antigen. Excitation of the donor fluorophore results in a transfer of energy to the bound acceptor fluorophore (FRET process). The resultant FRET is detected by emission of light at 665 nm using a microplate reader capable of measuring time-resolved fluorescence. Sample dose response curves are compared to the Reference Material (RM).
# (§2) c-MET Binding Materials and Methods. Certified commercial cMet, a recombinant cMet/HGFR with c-terminal His-tag is reacted with certified commercial Cy5 Mono NHS Ester to produce Cy5-labeled c-MET. Validated bispecific EGFR-cMet antibody is reacted with certified commercial Europium (Eu) chelate to produce Eu labeled bispecific EGFR-cMet antibody. […] Fluorescence is then measured by spectrophotometry at 665 nm, plotted against antibody concentration and analyzed by a four-parameter logistic model. The antibody concentration required to obtain half of the maximum fluorescence response (EC50) is determined for RM, assay control and samples. The potencies of assay control and samples are calculated based on the ratio of the sample (or control) and RM EC50 values and reported as a percentage activity relative to the RM.
# [2] = target: T2, recombinant human EGFR/ErbB1/HER1 with C-terminal His tag, Cy5-labeled (human, UniProt P00533 25-645, Cy5 label (reacted with Cy5 Mono NHS Ester; sites not stated)); test: competitive TR-FRET (Eu-amivantamab/Cy5-EGFR), EC50 ratio vs Reference Material; Ex. 12 drug product with rHuPH20, 0 months, 5 C table
# T2 construct: Commercial protein; also called Cy5-EGFR; Cy5-labeled EGFR antigen; not shown: C-terminal His tag
# Text: as §1, with “EGFR” for “c-MET”, “RM.” for “Reference Material (RM).”
# as §2, with “EGFR” for “c-MET”, “EGFR,” for “cMet,”, “human EGFR/ErbB1/HER1” for “cMet/HGFR”, “C-terminal His tag” for “c-terminal His-tag”, “EGFR.” for “c-MET.”, “Eu-labeled” for “Eu labeled”
# [3] = target: T2, recombinant human EGFR/ErbB1/HER1 with …; test: competitive TR-FRET (Eu-amivantamab/Cy5-EGFR), EC50 ratio vs Reference Material; Ex. 12 drug product with rHuPH20, 6 months at 25 C
# Text: as §1, with “EGFR” for “c-MET”, “RM.” for “Reference Material (RM).”
# as §2, with “EGFR” for “c-MET”, “EGFR,” for “cMet,”, “human EGFR/ErbB1/HER1” for “cMet/HGFR”, “C-terminal His tag” for “c-terminal His-tag”, “EGFR.” for “c-MET.”, “Eu-labeled” for “Eu labeled”
# [4] = target: T1, recombinant cMet/HGFR with c-terminal …; test: competitive TR-FRET (Eu-amivantamab/Cy5-c-MET), EC50 ratio vs Reference Material; Ex. 2 Formulation 2 (50 mM histidine), T0, 25 C table
# Text: as §1, §2
# [5] = target: T1, recombinant cMet/HGFR with c-terminal …; test: competitive TR-FRET (Eu-amivantamab/Cy5-c-MET), EC50 ratio vs Reference Material; Ex. 11 drug product, 0 months, 40 C table
# Text: as §1, §2
# [6] = target: T2, recombinant human EGFR/ErbB1/HER1 with …; test: competitive TR-FRET (Eu-amivantamab/Cy5-EGFR), EC50 ratio vs Reference Material; Ex. 11 drug product, 6 months at 25 C
# Text: as §1, with “EGFR” for “c-MET”, “RM.” for “Reference Material (RM).”
# as §2, with “EGFR” for “c-MET”, “EGFR,” for “cMet,”, “human EGFR/ErbB1/HER1” for “cMet/HGFR”, “C-terminal His tag” for “c-terminal His-tag”, “EGFR.” for “c-MET.”, “Eu-labeled” for “Eu labeled”
# [7] = target: T2, recombinant human EGFR/ErbB1/HER1 with …; test: competitive TR-FRET (Eu-amivantamab/Cy5-EGFR), EC50 ratio vs Reference Material; Ex. 11 drug product, 12 months at 5 C
# Text: as §1, with “EGFR” for “c-MET”, “RM.” for “Reference Material (RM).”
# as §2, with “EGFR” for “c-MET”, “EGFR,” for “cMet,”, “human EGFR/ErbB1/HER1” for “cMet/HGFR”, “C-terminal His tag” for “c-terminal His-tag”, “EGFR.” for “c-MET.”, “Eu-labeled” for “Eu labeled”
# [8] = target: T1, recombinant cMet/HGFR with c-terminal …; test: competitive TR-FRET (Eu-amivantamab/Cy5-c-MET), EC50 ratio vs Reference Material; Ex. 3 acetate formulation, 6 months at 25 C, untreated control
# Text: as §1, §2
binder,measurement,setting,value
B1,cMET Binding % activity relative to RM,[1],109%
same,EGFR Binding activity relative to Reference Material (%),[2],92%
same,EGFR Binding activity relative to Reference Material (%),[3],54%
same,cMET Binding % activity relative to RM,[4],102%
same,cMET Binding activity relative to Reference Material (%),[5],85%
same,EGFR Binding activity relative to Reference Material (%),[6],57%
same,EGFR Binding activity relative to Reference Material (%),[7],86%
same,cMET Binding % activity relative to RM,[8],99%
